In the nanobody polyreactivity screen of Harvey et al. (2022):

assay: yeast display, Sf9 membrane polyspecificity reagent, FACS + sequencing; frameworks hold sequencing errors
In short: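 Synthetic nanobody libraries on Saccharomyces cerevisiae BJ5465 were galactose-induced for 36–48 hours, stained 1 hour at 4 °C with 10% biotinylated, detergent-solubilized Sf9 membrane reagent and enriched on streptavidin microbeads. FACS then separated cells into low and high (top ~1%) gates by anti-HA (expression) and streptavidin (reagent binding) fluorescence. Genes were colony-PCR amplified, MiSeq 2 × 250 sequenced and CDR-length filtered. A clone's polyreactivity label is that of its gate of origin.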

Sequence | polyreactivity (PSR sort gate)
QVQLVESGGGLDQAGGCLRLSSAASGIIFYYNRMGCDRQAPGKERDLVADISGDGSTNYADSVKGRFTISRDNAKNTLYLQINSLKPDDTAFYYCNSDDIFRPRDDLYDYWGQGTQVTVSS | low polyreactivity
QVQLVESGGGLVQAGGSLRLSCAASGSIFSGYMGWYRQAPGKERELVATITSGGSTYADSVKGRFTISRDNAKNTVYLQMNSLKPEDTAVYYCAADVSFYTSKYDYWGQGTQVTVSS | low polyreactivity
QVQLVESGGGLVQAGGSLRLSCAASGSTFRVYGMGWYRQAPGKERELDAAIRWIGGRTYYADSVKGRFTISRDNAKNTVYLQMNSLKAEDTAVYYCNARAGPVRFDYWGQGTQVTVSS | low polyreactivity
QVQLVESGGGLVQAGGSLRLSCAASGRTFFYNAMGWYRQAPGKERELVAAIDWSGDSTYYADSVKGRFTISRDNAKNTVYLQMNSLKPEDTAVYYCAADGGQVDDSATRLYYWGQGTQVTVSS | high polyreactivity
QVQLVESGGGLVQAGGSLLLSCAASGRIFRSYAMGWYRQAPGKERELVAAISSGGSTKYADSVKGRFTISRDNAKNTVYLQMNSLKPVDTAVYYCAASRTRLGTSGTSYGAAYDYWGQGTQVTVSS | high polyreactivity
QVQLVESGGGLVQAGGTLRLTCAASGSIFSAYAMGWYRQEPGKEREFVAAITRRGGNTYYADSVKGRFTISRDNAKNTVYVQMNSLKPEDTAVYYCAAVAGGGPFDYWGQGTQVTVSS | low polyreactivity
QVQLVESGGGLVQAGGSLRLSCAASGGTFWIYAMGWYRKAPGKERELVAGITTSGATTYYADSVKGRFTISRDNAKNTVYLQMNSLKPEDTAVYYCAADEYYRYEYWGQGTQVTVSS | low polyreactivity
QVQLVETGGGLVQAGGSLRLSCAASGLSFGRNAIGSYRQAPGKERELVAAISRSGGRTSYADSVKGRFTISRDTAKNTVYLQMNSLKPEDTAVYYCAARSDVYTHDYWGQATQVTVSS | high polyreactivity
QVQLVESGGGLVQAGGSLRLSCAASGSTFPYYAMGWYRQAPGKERELVAAISRRGGSTYYADSVKGRFTISRDNAKNTVYLQMNSLKPEDTAVYYCAAGYYPSSSGDDYWGQGTQVTVSS | high polyreactivity
QVQVVESGGGLVQAGGSLRLSCAASGSTCYFNAMGWYRQAPGTERELVAAIEWSGGSTYYADSVKGRFTISRDNAKNTVYLQMTSLKPEDTAVYYCNRRDVIFLTGPPQYIFPTYDYWGQGTQVTVSS | low polyreactivity
QVQLVESGGGLVQAGGSLRLSCPASGLTFWLYALGWYRQAPGKERELVAAITRSGGSTSYADSVKGRFTISRDNAKNTVYLQMNSLKPEDTAVYYCNADSPGYTAVRLVEFDYWGQGTQVTVSS | low polyreactivity
QVQLVESGGGLVQAGVSLRLSCAASGLTFNYYDMGWYRQAPGKERELVAAISRSGTNTSYADSEKGRFTISRDNAKNTVYLQMNSLKPEDTAVYYCNADYYSRIVGVRIYDYWGQGTQVTVSS | low polyreactivity
QVQLVESGGGLVQAGGSLRLSCAASGFTFRYNAMGWYRQAPGKERELVAAISSRGGSTYYADSVKGRFTISRDNAKNTVYLQMNSLKPEDTAVYYCALYGGLGDRFRPRYYWGQGTQVTVSS | high polyreactivity
QVQLVESGGALVQAGGSLRLSCAASGSTFRRYAMGRYRQAPGKERELVAAISYGGGTTYYADSVKGRFTISRDNAKNTVYLQMNSLKPEDTAVYYCAARGPYGYVLLYYWGQGTQVTVSS | high polyreactivity
QVQLVESGGGLVQSGGILRLSCAATGSIFTSDAMGWYRLAPGKEMELVAAITFSGGDTYYADSVKGRFTISRDNAKNTVYLQMNSLNPEDTAVYYCNADPQQVGAYEYWGQGTQVTLSS | low polyreactivity
QVQLVESGGGLVQAGGSLRLSCAASGSTFTRYDMGGYRHAPGKERELVAAISKSGGSTYYADSVKGRFTISRDNAKNTVYLQMNSLKPEDTAVYYCARGSTKYHIYSLDYWGQGTQVTVSS | low polyreactivity
QVQLVESGGGLVQAGGSLRLSCAASGSIFYYYAMGWYRQAPGKERELVASITSGGSTYYADSVKGRFTISRDNAKNTVYLQMNILKPEDTAVYYCAADVYRTWYWWFDYWGQGTQVTVSS | high polyreactivity
QVQLVESGGGLVQAGGSLRLSCAASGIIFAYYAMGWYRQAPGKERELVAAIDYSGASTYYADSVKGRFTISRDNAKNTVYLQMNSLKPEDTAVYYCNADDFGYASYEYWGQGTQVTVSS | low polyreactivity
QVQLVESGGGLVQAGVSLRLSCAASGSIFDFYAMGWYRQAPGKERELVATITASGGSTYYADSVKGRFTISRDNAKNTVYLQMNSLKPEDTAVYYCNADSVYWGQGTQVTVSS | low polyreactivity
QVQLVESGGGLVQAGGSLRLSCAASGSIFVVYAMGWYRQAPGKERELVASIRTGGSTNYADSVKGRFTISRDNAKNTVYLQMNSLKPEDTAVYYCAAASWNSNSHYYVARYYYWGHGTQVTVSS | high polyreactivity

Sequence | polyreactivity (PSR sort gate)
QVQLVESGGGLVQAGASLRLSCAASGFTFGTYAMGWYRQAPGKERELVAAITKSGVRTYYADSVKGRFTISRDNAKNTVYLQMNSLKPEDTAVYYCNARGHSSLSTIVDFWGQGTQVTVSS | high polyreactivity
QVQLEESGGGLFQAGGSLRLSCAASGRTFPGNAMGWYRQAPGKERELVAAISYSGGRTYYADSVKGRFTISRDNAKNTVYLQMNSLKPEDTAVYYCNAWARLGRYEYWGQGTQVTVSS | high polyreactivity
QVQLVESGGGLVQAGGSLRLSCAASGFTFSSNAMGWYRQAPGKERELVAAISRGGRTYYADSVKGRFTISRDNAKNTVYLQMNSLKPEDTAVYYCATDYVYRYDYWGQGTQVTVSS | high polyreactivity
QVQLVESGGGLVQAGGSLRLSCAASGRTFYKYAMGWYRPAPGKERELVAAISGSGGGTYYADSVKGRFTISRDNAKNTVYLQMNSLKPEDTAVYYCAAVYLYYAYAFDYWGQGTHVTVSS | high polyreactivity
QVQLVESGGGLVQAGGSLRLSCAASGRTLVINVMGWYRQAPGKERELVAAISFRSGNTYYADSVKGRFTISRDNAKNTVYLQMNSLKPEDTAVYYCAAYTYRTSTTSSYYYWGQGTQVTVSS | high polyreactivity
QVQLEESGGGLVQAGGSLRLSCAASGITFFHYAMGWSRPAPGKERELVAAITWRGSSTYYADSVKGRFTMSRDNAKNTVYLQMNSLKPEDTAVYYCNAEVGYYEYDYWGQGTQVTVSS | high polyreactivity
QVQLVESGGGLVQAGGSLRLSCAASGFIFRYYAMGWYRQAPGKERELVAAISWSGSRTYYADSVKGRFTISRDNAKNTVYVQMNSLKPEDTAVYYCAADGNVGVTKGRFDYWGQGTQVTVSS | high polyreactivity
HVQLVESGGGLVQAGGSLRLSCAASGSTFKRNTMGWYRQAPGKERELVAAISRSGGSTYYADSVKGRFTISRDNAKNTVYLQMNSLKPEDTAVYYCNAYVSSYVGSRSYGLSPYDYWGQGTQVTVSS | high polyreactivity
QVQLVESGGGLVQAGGSLRLTCAASGFIFPNNAMGWYRQAPGKESELVAAISYSGGSTNYADSVKARFTISRDNAKNTVYLQMNSLKPEDTAVYYCAKADPAYLWGLREYDYWGQGTQVTVSS | low polyreactivity
QVQLVESGGVLVQAGGSLRLSCAASGITFSRNAMGWYRQAPGKEMELVAAITWNGGRTYYADSVKGRFTISRDNAKNTVYLPMNSLKPEATAVYYCAADYDYPDYYAPSWPGYNYWGQVTQVTVSS | low polyreactivity
QVQRVESGGGLVQAGGSLRLSCAASGYIFKYYAMGWYRHSPGKVRELVAAITGGVSTNYADSVKGRFTISRDNAKNTVYLQMNSLKPEDTAVYYCAAAITPSYTGSEYDYWGQGTQVTVSS | low polyreactivity
QVQLGESGRGLVQAGGSLRLSCAASGRTSWYYAMGWYSQAPGKERELVATSTRSTGSTYYADSVKGRFTISRDNAKNTVYLQMNSLKPEDTAVYYCAKRRKTQPFYIKWYRVDYWGQGTQVTVST | high polyreactivity
QVQLVESGGGLVQAGGSLRLSCAASGLTFYVYAMGWYRQAPGKERELVAAISSGGRTYYADSVKGRFTISRDNAKNTVYLQMNSLKPEDTAVYYCAAVRHRNYGYWGQGTQVTVSS | high polyreactivity
QVQHVESGGGLDQAGGSLRLSCAASGRIFYANAMGWYRQAPRKERELVAAIDWSGGSTYYADSVKGRFTISRDNAKNTVYLQMNSLKPEDTAVYYCAGPYHYYGNSVGYADYVYWGQGTQVTVSS | low polyreactivity
QVQLVESGGGLVQAGGSLLLSCAPSGITFVWYAMVWYRQAPGKERELVAAISRGGSTYYADSVKGRFTISRDNAKNTVYLQMNSLKPVDTAVYYCAARAPYIQQSVHISPRYYYSGQGTQVTVSS | high polyreactivity
QVQLVESGGGLVQAGGSLRLSCAASGFTFGYYAMGWYRQAPGKERELVAAITWSGGRTYYADSVKGRFTISRDNAKNTVYLQMNSLKPEDTAVYYGAVETLWQGSEYWGQGTQVTVSS | low polyreactivity
KVQLVESGGGLVQAGGSLRLSCAASGITLSYYAMGWYSQAPGKEMELVAAINRGGRTYYADSVTGRFTISRDNAKNTVYLQMNSLKPEDTAVYYCATAYASSQKYYYWGQGTQVTVSS | high polyreactivity
QVQLVESGGGLVQAGGSLRLSCDASGSIFGKYTMGWYRQAPGKVRELVAAISKRGGSTRYADSVKGRFTISRDNAKNTVYLQMNSLKPEDTAVYYCAAYRYWMYRYQIVNYGYWGQGTQVTVSS | high polyreactivity
QVQLVESGGGLVQAGGSLRLSCAASGFTFRGYAMGWYRQAPGKERELVAAISNGGGTNYADSVKGRFTISRDNAKNTVYLQMNSLKPEDTAVYYCNAPGYRAENPGFDYWGQGTQVTVSS | high polyreactivity
QVQLVESGGGLVQAGGSLRLSCAASGYTFFFNVMGWYRQAPGKERELVAAISYSGGSTNYADSVKGRFTISRDNAKNTVYLQINSLKPEDTAVYYCNARTVSRNGYQDDYWGQGTQVTVSS | low polyreactivity
